Results from PMC4965175.

Biological target: D-allulose 3-epimerase from Flavonifractor plautii (Flavonifractor plautii ATCC 29863)
Experiment: SEC; gel filtration on Sephacryl S-300 HR 16/60; purified enzyme eluted with 50 mM Tris-HCl pH 7.5, 150 mM NaCl, 1 mL/min; calibrated with ferritin, catalase, aldolase and conalbumin

D-allulose 3-epimerase from Flavonifractor plautii (enzyme)
stoichiometry N: 4
